T1: human 5T4 on cells (human, UniProt Q13641 32-420)
T1 construct: also called TPBG; hu5T4
T1 sequence: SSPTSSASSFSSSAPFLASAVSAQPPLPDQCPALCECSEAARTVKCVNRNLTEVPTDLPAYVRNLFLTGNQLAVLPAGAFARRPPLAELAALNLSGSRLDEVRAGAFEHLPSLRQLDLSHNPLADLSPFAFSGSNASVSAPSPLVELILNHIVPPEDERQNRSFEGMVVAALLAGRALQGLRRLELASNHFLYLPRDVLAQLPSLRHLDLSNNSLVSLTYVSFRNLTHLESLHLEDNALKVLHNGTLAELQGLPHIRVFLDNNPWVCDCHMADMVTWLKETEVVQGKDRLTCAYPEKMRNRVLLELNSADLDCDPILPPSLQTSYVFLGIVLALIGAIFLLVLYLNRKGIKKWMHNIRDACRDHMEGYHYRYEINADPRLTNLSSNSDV

T2: FcγRIIb (CD32b) (UniProt P31994 43-310, limits assumed)
T2 construct: whole, on cells
T2 sequence (looked up): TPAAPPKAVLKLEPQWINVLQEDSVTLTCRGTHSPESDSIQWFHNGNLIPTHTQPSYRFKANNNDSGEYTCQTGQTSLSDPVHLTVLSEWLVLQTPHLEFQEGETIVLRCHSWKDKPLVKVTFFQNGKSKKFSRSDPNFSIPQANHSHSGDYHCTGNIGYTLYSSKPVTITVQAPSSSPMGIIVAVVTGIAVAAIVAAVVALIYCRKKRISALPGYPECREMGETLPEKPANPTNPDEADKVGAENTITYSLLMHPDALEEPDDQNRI


What was measured:
human 5T4 on cells [1] = target: T1, human 5T4 on cells; experiment: flow cytometry, TF-1 cells, PE goat anti-human Fc
Description: A 3-fold titration of ALG.APV-210 construct (ranging from 100 nM to 0.14 nM) was incubated with the human 5T4-expressing cell lines for 40 minutes in FACS buffer at 4° C., washed 3 times, and detected with PE-labeled, goat-anti-human Fc secondary antibody (Jackson ImmunoResearch). Binding of ALG.APV-210 was detected by flow cytometry. All samples were run in duplicates. Nonlinear regression analysis to determine EC₅₀ values was performed in GraphPad Prism 6® graphing and statistics software.

FcγRIIIa (CD16a Phe158) = target: T3, FcγRIIIa (CD16a Phe158) (UniProt P08637 17-254, limits assumed); experiment: flow cytometry, CHO cells stably expressing CD16a Phe158, fluorescent anti-human IgG secondary, MFI (mean)
T3 construct: whole, on cells; allotype Phe158 as printed
T3 sequence (P08637 17-254 limits assumed): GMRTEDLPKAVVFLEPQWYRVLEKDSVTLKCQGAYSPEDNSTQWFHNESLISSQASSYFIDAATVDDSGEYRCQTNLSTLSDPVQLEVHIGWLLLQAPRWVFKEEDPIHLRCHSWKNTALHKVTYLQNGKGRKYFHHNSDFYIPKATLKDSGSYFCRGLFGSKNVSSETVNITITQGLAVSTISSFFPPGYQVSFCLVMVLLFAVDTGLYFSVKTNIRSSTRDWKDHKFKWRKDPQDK
Excerpt: (§1) ALG.APV-210 contains mutations introduced to prevent interaction with Fcγ receptors (FcγR) that could lead to FcγR-mediated T-cell activation or ADCC, ADCP, CDC etc. Binding of ALG.APV-210 was therefore tested on CHO cell transfectants stably expressing the following FcγR: FcγRI (CD64), FcγRIIa (CD32a His131), FcγRIIb (CD32b), FcγRIIIa (CD16a Val158 and CD16a Phe158), and FcγRIIIb (CD16b). Untransfected CHO cells were used as negative control. A control human IgG1 molecule was used as a positive control. Different concentrations of ALG.APV-210 or control IgG1 were incubated with the FcγR-expressing cell lines, washed, and labeled with a secondary anti-human IgG reagent. Binding of ALG.APV-210 and the control IgG1 was detected by flow cytometry.

FcγRIIb (CD32b) = target: T2, FcγRIIb (CD32b); experiment: flow cytometry, CHO cells stably expressing CD32b, fluorescent anti-human IgG secondary, MFI (mean)
Excerpt: as §1

human 5T4 on cells [2] = target: T1, human 5T4 on cells; experiment: flow cytometry, HT29 cells (endogenous human 5T4), biotinylated ALG.APV-210 + streptavidin-PE, 1 of 2 experiments
Description: (§2) Prior to the FACS staining, all cell lines were characterized for their 5T4 expression levels using a receptor density kit (Quantum Simply Cellular, anti-human IgG, Bangs Laboratories, Inc). Adherent cell lines were cultured according to their supplier's instructions and were harvested from their cell culture flasks using Trypsin/EDTA, counted in R10 medium in a Burker chamber, and diluted in FACS buffer (PBS+0.5% BSA, 0.05% NaN₃) to a concentration of 4×10⁶ cells/mL. 50 μL (0.20×10⁶) of cell solution was added to a 96-well FACS staining plate (Falcon #351190). Cells were incubated for 20 min in 4° C. with 50 μL of the biotinylated ALG.APV-210 (2× final concentration). The antibodies were added in a serial dilution starting at 20 μg/mL titrating down in a 12 step ½ dilution down to 0.010 μg/mL. […] Cells were analysed for ALG.APV-210 binding using flow cytometry (FACSVerse) by gating on single cells. MFI values (secondary antibody only subtracted) from 1 out of 2 independent experiments, as well as normalized data and EC₅₀-values of pooled data from 2 experiments were determined and plotted using GraphPad Prism 7, non-linear regression log (agonist) vs. normalized response—variable slope.
The binding (EC₅₀) of the biotinylated ALG.APV-210 to 5T4 when expressed on cells, either at endogenous levels on human tumor cells or on cells transfected to express 5T4 was assessed. […]

human 5T4 on cells [3] = target: T1, human 5T4 on cells; experiment: flow cytometry, JEG cells, streptavidin-PE, normalized MFI of 2 pooled experiments
Description: as §2, with “μg/mL. Following 2× washing with FACS buffer, cells were incubated for 30 min in 4° C. with 100 μL of a secondary antibody (streptavidin-PE, BD #554061, diluted 1/500).” for “μg/mL.”

| Binder | EC50 (human 5T4 on cells [1]) | binding result (FcγRIIIa (CD16a Phe158)) | binding result (FcγRIIb (CD32b)) | EC50 (read off the curve) (human 5T4 on cells [2]) | EC50 (human 5T4 on cells [3]) |
| --- | --- | --- | --- | --- | --- |
| ALG.APV-210 (bispecific antibody, Optimized ADAPTIR scFv-Fc-scFv homodimer with stabilizing disulfide in the 1210 scFv; also called 5T4-CD137 bispecific antibody) EVQLLESGGGLVQPGGSLRLSCAASGFTFSHGSMYWVRQAPGKGLEWVSSISSGSGSTYYADSVKGRFTISHDNSKNTLYLQMNSLRAEDTAVYYCARSSYYGSYYSIDYWGQGTLVTVSSGGGGSGGGGSGGGGSGGGGSDIQMTQSPSSLSASVGDRVTITCRASQSISSYLNWYQQKPGKAPKLLIYAASSLQSGVPSRFSGSGSGTDFTLTISSLQPEDFATYYCQQYYDNLPTFGQGTKLEIKEPKSSDKTHTCPPCPAPEAAGAPSVFLFPPKPKDTLMISRTPEVTCVVVDVSHEDPEVKFNWYVDGVEVHNAKTKPREEQYNSTYRVVSVLTVLHQDWLNGKEYKCAVSNKALPAPIEKTISKAKGQPREPQVYTLPPSRDELTKNQVSLTCLVKGFYPSDIAVEWESNGQPENNYKTTPPVLDSDGSFFLYSKLTVDKSRWQQGNVFSCSVMHEALHNHYTQKSLSLSPGSGGGGSGGGGSGGGGSPSEVQLLESGGGLVQPGGSLRLSCAASGFTFSSYAMSWVRQAPGKCLEWVSAISGSGGSTYYADSVKGRFTISRDNSKNTLYLQMNSLRAEDTAVYYCARYYGGYYSAWMDYWGQGTLVTVSSGGGGSGGGGSGGGGSGGGGSDIQMTQSPSSLSASVGDRVTITCRASQSISSFLNWYQQKPGKAPKLLIYAASSLQSGVPSRFSGSGSGTDFTLTISSLQPEDSATYYCQQTYGYLHTFGCGTKLEIKR | 71 nM | no binding (tested: 1000 nM) | no binding (tested: 1000 nM) |  |  |
| biotinylated ALG.APV-210 (bispecific antibody, also called ALG.APV-210 (biotinylated for FACS detection)) EVQLLESGGGLVQPGGSLRLSCAASGFTFSHGSMYWVRQAPGKGLEWVSSISSGSGSTYYADSVKGRFTISHDNSKNTLYLQMNSLRAEDTAVYYCARSSYYGSYYSIDYWGQGTLVTVSSGGGGSGGGGSGGGGSGGGGSDIQMTQSPSSLSASVGDRVTITCRASQSISSYLNWYQQKPGKAPKLLIYAASSLQSGVPSRFSGSGSGTDFTLTISSLQPEDFATYYCQQYYDNLPTFGQGTKLEIKEPKSSDKTHTCPPCPAPEAAGAPSVFLFPPKPKDTLMISRTPEVTCVVVDVSHEDPEVKFNWYVDGVEVHNAKTKPREEQYNSTYRVVSVLTVLHQDWLNGKEYKCAVSNKALPAPIEKTISKAKGQPREPQVYTLPPSRDELTKNQVSLTCLVKGFYPSDIAVEWESNGQPENNYKTTPPVLDSDGSFFLYSKLTVDKSRWQQGNVFSCSVMHEALHNHYTQKSLSLSPGSGGGGSGGGGSGGGGSPSEVQLLESGGGLVQPGGSLRLSCAASGFTFSSYAMSWVRQAPGKCLEWVSAISGSGGSTYYADSVKGRFTISRDNSKNTLYLQMNSLRAEDTAVYYCARYYGGYYSAWMDYWGQGTLVTVSSGGGGSGGGGSGGGGSGGGGSDIQMTQSPSSLSASVGDRVTITCRASQSISSFLNWYQQKPGKAPKLLIYAASSLQSGVPSRFSGSGSGTDFTLTISSLQPEDSATYYCQQTYGYLHTFGCGTKLEIKR |  |  |  | ~10 nM | 8 nM |
